Experimental data as given in patent publication US20020111304A1 (SCHEPENS EYE RESEARCH INSTITUTE, published 2002).

Tests used:
Experiment in all cases: co-immunoprecipitation with anti-αPDGFR antibody from F cells, Western blot
[1] = biological target: T1, phospholipase C-γ1 (PLCγ) (UniProt Q62077 2-1302, limits assumed)
T1 construct: Endogenous protein that co-precipitates with the receptor from F cell lysates; also called phospholipase C-gamma
T1 sequence (looked up): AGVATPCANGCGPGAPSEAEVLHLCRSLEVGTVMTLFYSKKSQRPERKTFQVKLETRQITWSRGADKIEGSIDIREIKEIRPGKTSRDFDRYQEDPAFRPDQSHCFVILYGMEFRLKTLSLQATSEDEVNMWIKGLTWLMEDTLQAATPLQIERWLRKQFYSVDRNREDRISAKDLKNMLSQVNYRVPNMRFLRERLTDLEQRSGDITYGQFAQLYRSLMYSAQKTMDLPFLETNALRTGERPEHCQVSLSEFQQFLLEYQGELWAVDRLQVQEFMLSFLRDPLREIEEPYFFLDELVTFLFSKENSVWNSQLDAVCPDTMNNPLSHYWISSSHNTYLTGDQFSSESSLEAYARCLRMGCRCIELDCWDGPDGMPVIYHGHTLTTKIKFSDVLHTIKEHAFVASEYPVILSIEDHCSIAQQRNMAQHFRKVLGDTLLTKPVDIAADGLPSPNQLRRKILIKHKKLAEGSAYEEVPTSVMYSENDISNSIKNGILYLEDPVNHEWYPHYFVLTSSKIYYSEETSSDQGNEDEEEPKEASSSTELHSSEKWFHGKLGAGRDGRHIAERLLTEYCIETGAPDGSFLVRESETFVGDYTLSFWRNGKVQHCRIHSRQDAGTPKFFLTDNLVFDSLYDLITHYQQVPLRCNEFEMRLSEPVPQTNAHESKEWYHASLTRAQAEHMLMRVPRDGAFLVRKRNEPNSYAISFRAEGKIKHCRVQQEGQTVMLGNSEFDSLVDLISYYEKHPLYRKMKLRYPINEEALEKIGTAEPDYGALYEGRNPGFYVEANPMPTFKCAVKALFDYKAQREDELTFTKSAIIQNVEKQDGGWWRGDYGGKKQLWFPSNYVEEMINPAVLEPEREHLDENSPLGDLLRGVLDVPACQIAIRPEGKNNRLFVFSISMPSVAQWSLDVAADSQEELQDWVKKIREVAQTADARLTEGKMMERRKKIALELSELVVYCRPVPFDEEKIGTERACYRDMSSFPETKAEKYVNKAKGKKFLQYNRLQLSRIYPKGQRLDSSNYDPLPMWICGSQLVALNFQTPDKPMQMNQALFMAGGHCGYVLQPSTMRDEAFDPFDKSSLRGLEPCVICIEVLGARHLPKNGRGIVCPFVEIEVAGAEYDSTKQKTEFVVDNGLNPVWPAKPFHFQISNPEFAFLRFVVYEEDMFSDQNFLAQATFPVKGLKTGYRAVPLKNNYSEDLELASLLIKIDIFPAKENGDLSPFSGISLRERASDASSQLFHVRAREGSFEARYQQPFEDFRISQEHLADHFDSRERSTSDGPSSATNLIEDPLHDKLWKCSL
Excerpt: (§1) Portions of the membrane that contained the proteins of the appropriate molecular mass were immunoblotted for PLCγ, the regulatory subunit of PI3K (p85), or SHP-2. Crude rabbit anti-p85 antibody is from Dr. A. Toker (Beth Israel Hospital/Harvard Medical School, Boston, Mass.). The monoclonal antibodies against PLCγ and SHP-2 were purchased from Upstate Biotechnology Inc.

[2] = biological target: T2, regulatory subunit of PI3K (p85) (UniProt P26450 2-724)
T2 construct: The catalytic subunit is not described; also called phosphoinositide 3-kinase
T2 sequence (P26450 2-724): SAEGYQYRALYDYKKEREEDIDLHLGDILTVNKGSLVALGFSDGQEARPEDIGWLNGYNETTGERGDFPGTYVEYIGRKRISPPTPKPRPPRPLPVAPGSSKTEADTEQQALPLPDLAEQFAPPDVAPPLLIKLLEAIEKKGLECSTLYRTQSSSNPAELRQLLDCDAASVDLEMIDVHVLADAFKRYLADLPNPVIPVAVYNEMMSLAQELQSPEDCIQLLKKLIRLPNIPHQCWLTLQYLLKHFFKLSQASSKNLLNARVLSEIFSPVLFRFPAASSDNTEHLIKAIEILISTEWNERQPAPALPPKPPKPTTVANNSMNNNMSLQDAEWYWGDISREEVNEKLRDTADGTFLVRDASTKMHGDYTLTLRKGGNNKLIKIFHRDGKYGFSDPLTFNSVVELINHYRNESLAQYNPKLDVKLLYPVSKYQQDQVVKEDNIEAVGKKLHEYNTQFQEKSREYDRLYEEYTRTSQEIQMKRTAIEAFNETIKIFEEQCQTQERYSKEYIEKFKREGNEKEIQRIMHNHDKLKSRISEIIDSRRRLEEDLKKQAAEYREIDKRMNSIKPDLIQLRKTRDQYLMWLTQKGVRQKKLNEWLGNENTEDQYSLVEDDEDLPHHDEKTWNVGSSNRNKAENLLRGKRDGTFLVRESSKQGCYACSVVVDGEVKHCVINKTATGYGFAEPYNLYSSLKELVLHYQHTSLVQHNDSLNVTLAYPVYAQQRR
Excerpt: as §1

[3] = biological target: T3, tyrosine phosphatase SHP-2 (UniProt P35235 2-593, limits assumed)
T3 construct: Endogenous protein that co-precipitates with the receptor from F cell lysates
T3 sequence (looked up): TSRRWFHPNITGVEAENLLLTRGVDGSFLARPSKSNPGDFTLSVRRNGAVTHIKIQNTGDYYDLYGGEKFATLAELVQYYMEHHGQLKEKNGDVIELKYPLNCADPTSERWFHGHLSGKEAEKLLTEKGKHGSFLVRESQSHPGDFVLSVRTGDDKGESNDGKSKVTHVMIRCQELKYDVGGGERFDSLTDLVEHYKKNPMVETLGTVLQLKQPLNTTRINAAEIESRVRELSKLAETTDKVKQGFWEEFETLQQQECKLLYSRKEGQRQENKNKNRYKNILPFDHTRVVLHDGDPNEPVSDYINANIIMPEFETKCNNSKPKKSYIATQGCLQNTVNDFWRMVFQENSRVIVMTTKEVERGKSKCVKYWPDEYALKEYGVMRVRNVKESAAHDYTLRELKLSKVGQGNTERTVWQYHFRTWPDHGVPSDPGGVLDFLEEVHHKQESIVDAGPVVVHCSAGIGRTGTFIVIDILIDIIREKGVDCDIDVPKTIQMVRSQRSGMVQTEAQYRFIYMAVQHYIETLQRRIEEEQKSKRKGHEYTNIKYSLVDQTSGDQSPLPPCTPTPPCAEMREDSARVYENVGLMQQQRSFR
Excerpt: as §1

Measured: binding result

B1: αPDGFR mutant F7 (Tyr to Phe substitution at 572, 574, 720, 731, 742, 988, and 1018) (receptor)
chain: QLSLPSILPNENEKVVQLNSSFSLRCFGESEVSWQYPMSEEESSDVEIRNEENNSGLFVTVLEVSSASAAHTGLYTCYYNHTQTEENELEGRHIYIYVPDPDVAFVPLGMTDYLVIVEDDDSAIIPCRTTDPETPVTLHNSEGVVPASYDSRQGFNGTFTVGPYICEATVKGKKFQTIPFNVYALKATSELDLEMEALKTVYKSGETIVVTCAVFNNEVVDLQWTYPGEVKGKGITMLEEIKVPSIKLVYTLTVPEATVKDSGDYECAARQATREVKEMKKVTISVHEKGFIEIKPTFSQLEAVNLHEVKHFVVEVRAYPPPRISWLKNNLTLIENLTEITTDVEKIQEIRYRSKLKLIRAKEEDSGHYTIVAQNEDAVKSYTFELLTQVPSSILDLVDDHHGSTGGQTVRCTAEGTPLPDIEWMICKDIKKCNNETSWTILANNVSNIITEIHSRDRSTVEGRVTFAKVEETIAVRCLAKNLLGAENRELKLVAPTLRSELTVAAAVLVLLVIVIISLIVLVVIWKQKPRYEIRWRVIESISPDGHEFIFVDPMQLPYDSRWEFPRDGLVLGRVLGSGAFGKVVEGTAYGLSRSQPVMKVAVKMLKPTARSSEKQALMSELKIMTHLGPHLNIVNLLGACTKSGPIYIITEYCFYGDLVNYLHKNRDSFLSHHPEKPKKELDIFGLNPADESTRSFVILSFENNGDFMDMKQADTTQFVPMLERKEVSKYSDIQRSLYDRPASYKKKSMLDSEVKNLLSDDNSEGLTLLDLLSFTYQVARGMEFLASKNCVHRDLAARNVLLAQGKIVKICDFGLARDIMHDSNYVSKGSTFLPVKWMAPESIFDNLYTTLSDVWSYGILLWEIFSLGGTPYPGMMVDSTFYNKIKSGYRMAKPDHATSEVYEIMVKCWNSEPEKRPSFYHLSEIVENLLPGQYKKSYEKIHLDFLKSDHPAVARMRVDSDNAFIGVTYKNEEDKLKDWEGGLDEQRLSADSGFIIPLPDIDPVPEEEDLGKRNRHSSQTSEESAIETGSSSSTFIKREDETIEDIDMMDDIGIDSSDLVEDSFL
notes: Expressed in F cells and immunoprecipitated from lysates
no binding: all assays above
